{
  "source": "paper doi:10.1101/2025.03.24.645041",
  "about": "(2025)",
  "parents": {"B1": {"name": "MBP-Vac17(H) [budding yeast] / Strep II-Myo2(1150–1567) [budding yeast] (parent complex)", "chain 1": "MATQALEDITERLLIRSQEAILQLDLWIQRQQRSSICQTTDQESLDKLSQQYNQYMSQLNSLYVRSESVRDKLSKEQQRRLITEDNEHQRIEDLVREFQDITLRLNELA", "chain 2": "GVNATQINEELYRLLEDTEILNQEITEGLLKGFEVPDAGVAIQLSKRDVVYPARILIIVLSEMWRFGLTKQSESFLAQVLTTIQKVVTQLKGNDLIPSGVFWLANVRELYSFVVFALNSILTEETFKNGMTDEEYKEYVSLVTELKDDFEALSYNIYNIWLKKLQKQLQKKAINAVVISESLPGFSAGETSGFLNKIFANTEEYTMDDILTFFNSIYWCMKSFHIENEVFHAVVTTLLNYVDAICFNELIMKRNFLSWKRGLQLNYNVTRLEEWCKTHGLTDGTECLQHLIQTAKLLQVRKYTIEDIDILRGICYSLTPAQLQKLISQYQVADYESPIPQEILRYVADIVKKEAALSSSGNDSKGHEHSSSIFITPETGPFTDPFSLIKTRKFDQVEAYIPAWLSLPSTKRIVDLVAQ"}},
  "data": [
    {"variants_of": "B1", "test": "pull-down; Strep II-Myo2 tail co-expressed with MBP-Vac17(H) and immobilized on Strep-Tactin beads; normalized to Vac17 and Myo2 input levels; parent: 1; read off a plot", "values": [
      {"variant": "chain 2 GVNATQINEELYRLLEDTEILNQEITEGLLKGFEVPDAGVAIQLSKRDVVYPARILIIVLSEMWRFGLTKQSESFLAQVLTTIQKVVTQLKGNDLIPSGVFWLANVRELYSFVVFALNSILTEETFKNGMTDEEYKEYVSLVTELKDDFEALSYNIYNIWLKKLQKQLQKKAINAVVISESLPGFSAGRTSGFLNKIFANTEEYTMDDILTFFNSIYWCMKSFHIENEVFHAVVTTLLNYVDAICFNELIMKRNFLSWARGLQLNYNVTRLEEWCKTHGLTDGTECLQHLIQTAKLLQARKYTIEDIDILRGICYSLTPAQLQKLISQYQVADYESPIPQEILRYVADIVKKEAALSSSGNDSKGHEHSSSIFITPETGPFTDPFSLIKTRKFDQVEAYIPAWLSLPSTKRIVDLVAQ", "note": "[chain 2 E189R, chain 2 K259A, chain 2 V299A]", "ratio to parent": "~0.4"},
      {"variant": "chain 2 GVNATQINEELYRLLEDTEILNQEITEGLLKGFEVPDAGVAIQLSKRDVVYPARILIIVLSEMWRFGLTKQSESFLAQVLTTIQKVVTQLKGNDLIPSGVFWLANVRELYSFVVFALNSILTEETFKNGMTDEEYKEYVSLVTELKDDFEALSYNIYNIWLKKLQKQLQKKAINAVVISESLPGFSAGETSGFLNKIFANTEEYTMDDILTFFNSIYWCMKSFHIENEVFHAVVTTLLNYVDAICFNELIMKRNFLSWARGLQLNYNVTRLEEWCKTHGLTDGTECLQHLIQTAKLLQVEKYTIEDIDILRGICYSLTPAQLQKLISQYQVADYESPIPQEILRYVADIVKKEAALSSSGNDSKGHEHSSSIFITPETGPFTDPFSLIKTRKFDQVEAYIPAWLSLPSTKRIVDLVAQ", "note": "[chain 2 K259A, chain 2 R300E]", "ratio to parent": "~0.59"}
    ]}
  ]
}
